# Assay results from the supplement of paper PMC10724198.
# ± gives the standard deviation of the averaged measurements.
# Test system: Saccharomyces cerevisiae
# Assay: protein stability index of tFT-peptide fusion (C-terminal peptide) (PSI (0-1 scale)); higher = more stable (slower turnover)
# Conditions: genetic background: wild type; temperature: 37 C
# Procedure: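 MPS profiling in S. cerevisiae of the tFT-X12 degron library: putative degron peptides plus stable controls, 12 aa, fused to the C-terminus of a sfGFP-mCherry timer. Cells are FACS-sorted into 8 mCherry/sfGFP bins and deep-sequenced. PSI runs from 0 (unstable) to 1 (stable). Backgrounds are wild type, das1Δ and doa10Δ at 30 °C, and wild type, das1Δ, cdc34-1 and cdc53-1 at 37 °C; 2-3 technical replicates each.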
# 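Further: PSI is a weighted mean of sequencing reads over stability bins, variants kept only with over 10 reads, mCherry proximal and sfGFP distal, peptide attached via GGGS linker.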
row,Sequence,protein stability index
1,RWRLWVGWGVVG,0.533 ± 0.059
2,VGGREVSRAGGG,0.534 ± 0.041
3,VSVFWVFLLVAG,0.383 ± 0.016
4,WPPPPPSLLLLC,0.177 ± 0.024
5,YIYIFLVWGWYC,0.201 ± 0.018

# Test system: Saccharomyces cerevisiae
# Assay: as above
# Conditions: genetic background: wild type; temperature: 30 C
row,Sequence,protein stability index
1,ACALRSLPPRPY,0.188 ± 0.064
2,ACCGVFFFFFWL,0.404 ± 0.018
3,ACLVAVWRWVFV,0.126 ± 0.024
4,AFAFLLHRFLLV,0.148 ± 0.017
5,WERRRGVCGGVW,0.707 ± 0.05
6,WEWGCRVEELSG,0.742 ± 0.0086
7,WFFRSVVPRCGG,0.63 ± 0.038
8,WFPSSLPLTCIQ,0.651 ± 0.084
9,WGAGGGGWWGGV,0.731 ± 0.03
10,WGALVLAVRSAP,0.642 ± 0.037
11,WGEGSGRVWEIS,0.679 ± 0.019
12,WGGAGRVWVLGP,0.696 ± 0.019
13,WGGGGRGWGSRG,0.684 ± 0.057
14,WGGGSGRRIGCR,0.70604 ± 0.00021
15,WGGLGGREPGGS,0.74 ± 0.078
16,WGGVRRVRVGGQ,0.723 ± 0.053
17,WGLCWFGCLWGR,0.692 ± 0.033
18,WGLGVGGCGWVG,0.67 ± 0.018
19,WGPGGGGVSDGM,0.768 ± 0.019
20,WGQGTGFWGLFG,0.681 ± 0.024
21,WGRGEWKRGQEA,0.743 ± 0.053
22,WGRTRGDHGGKK,0.686 ± 0.04
23,WGSWCLVPDGNE,0.717 ± 0.084
24,WGTTLMYKAKKA,0.616 ± 0.024

row,Sequence,protein stability index
1,WHACAGWLGQKG,0.71 ± 0.078
2,WHGDDSSIWQVG,0.791 ± 0.036
3,WHGSVPHLWFPP,0.59 ± 0.026
4,WHIEGFGQYYSL,0.736 ± 0.019
5,WHRCQWTPASRP,0.733 ± 0.05
6,WIGHALPSSNSH,0.675 ± 0.056
7,WKKSIKKDTREM,0.721 ± 0.012
8,WKPGSPGCQAFR,0.6031 ± 0.0017
9,WKRDSCFFIEAG,0.638 ± 0.042
10,WLAVVGRDGFLG,0.729 ± 0.016
11,WLFSSRDSGACR,0.8029 ± 0.0011
12,WLGGIFRNKVFT,0.621 ± 0.013
13,WLGSGESVGHAG,0.686 ± 0.067
14,WLGTGIILPITG,0.793 ± 0.13
15,WLGWIVNNSNTE,0.753 ± 0.058
16,WLLSVYSVGTDV,0.589 ± 0.2
17,WLSDSCRMNSEV,0.666 ± 0.035
18,WLSLPLAHLFSP,0.681 ± 0.047
19,WLVGSGGVWSGR,0.706 ± 0.019
20,WLVRNVVGGGLC,0.701 ± 0.046
21,WLVSPPTPFPLP,0.6422 ± 0.0039
22,WMDNTKKGNKDS,0.736 ± 0.06
23,WMSGETTHTGRP,0.742 ± 0.026
24,WMTFTTAVTDGG,0.656 ± 0.046

row,Sequence,protein stability index
1,WNLESKTEARTR,0.704 ± 0.049
2,WNRNVEILSALA,0.548 ± 0.012
3,WNRSAFLSSGTI,0.67578 ± 3.2e-05
4,WNRVPEWTREPL,0.719 ± 0.022
5,WNSISGRTVVYM,0.709 ± 0.092
6,WPAFYTSRLLLR,0.615 ± 0.034
7,WPPPPPYSPFSL,0.737 ± 0.02
8,WPVALAPTRLEI,0.608 ± 0.072
9,WQIRREMFECGL,0.677 ± 0.025
10,WRAGGGGGPAGV,0.679 ± 0.029
11,WRAGSGGGPLAS,0.68 ± 0.043
12,WRCAGGGGVGGG,0.6956 ± 0.0011
13,WRELGCFGVRGD,0.732 ± 0.022
14,WRLFFGVNLIKF,0.622 ± 0.037
15,WRSIQLVHDKRR,0.6808 ± 0.0056
16,WRVMCLQRCSGV,0.541 ± 0.011
17,WRYFLGKGRMSF,0.742 ± 0.014
18,WSDGGRGGGWGK,0.656 ± 0.015
19,WSPLFPLLASST,0.678 ± 0.016
20,WSREGGVVESVG,0.709 ± 0.019
21,WSRGGGGHKEAM,0.639 ± 0.022
22,WSRPAGVRSSLA,0.7039 ± 0.00079
23,WSRPVTFRIGLW,0.653 ± 0.017
24,WTGGEEGTAVQA,0.676 ± 0.025

row,Sequence,protein stability index
1,WTGTTGQSLYLS,0.733 ± 0.1
2,WVAADTDGEPKH,0.6986 ± 0.0057
3,WVCLGWGVPRSG,0.835 ± 0.031
4,WVFSGTWSSVSG,0.671 ± 0.027
5,WVGGGGGPSGVV,0.733 ± 0.042
6,WVGWVACGAGGG,0.651 ± 0.061
7,WVHTLHARIGCQ,0.625 ± 0.046
8,WVKGRVKIEGGQ,0.68 ± 0.042
9,WVLFWWRGRSGR,0.665 ± 0.042
10,WVPISPFLTPSH,0.716 ± 0.025
11,WVSILRWDACSR,0.685 ± 0.014
12,WVSRDFLVEAVW,0.557 ± 0.026
13,WVTSSTRGRSGS,0.644 ± 0.033
14,WWGCLGGRAGSR,0.695 ± 0.028
15,WWGFGRVCGGGV,0.774 ± 0.092
16,WYYTCSEFSIYN,0.693 ± 0.0071
17,YAAQLGLGVLVG,0.6 ± 0.0077
18,YACADVSDPLSV,0.721 ± 0.019
19,YAGDPEAAAEWG,0.68 ± 0.052
20,YCRGGGLAKREV,0.689 ± 0.021
21,YDCPLPPSGLTI,0.688 ± 0.036
22,YDYASTCGSCIY,0.774 ± 0.024
23,YERPIVAAVRSR,0.724 ± 0.02
24,YESHVLDRMDGR,0.651 ± 0.026

row,Sequence,protein stability index
1,YFALLMLTPPPP,0.636 ± 0.022
2,YFDVFLRLAFSR,0.655 ± 0.04
3,YFFRLLYRLWSR,0.676 ± 0.092
4,YFLCPPTSPHRH,0.736 ± 0.13
5,YGGAWGGVIHVC,0.657 ± 0.0081
6,YGILSVRGSLSR,0.76 ± 0.065
7,YGLSVSSLRLWP,0.6853 ± 0.0051
8,YGMETVAVYTEG,0.666 ± 0.019
9,YGPDQIGPRPGL,0.69 ± 0.041
10,YGRLPNWGASTE,0.714 ± 0.014
11,YIDDGVVENVRV,0.681 ± 0.02
12,YINFQKMRKKFD,0.723 ± 0.04
13,YINILKLVMNQD,0.736 ± 0.052
14,YKNKRSNKRKHK,0.702 ± 0.0098
15,YLCARGIFTLYV,0.602 ± 0.034
16,YLGCPSHLALPL,0.721 ± 0.076
17,YLGTTHTGTSHR,0.701 ± 0.019
18,YLGYADDLLIML,0.707 ± 0.018
19,YLPRLISAPVGP,0.753 ± 0.076
20,YLYMESTVESHL,0.719 ± 0.025
21,YMTWRGCGWSGG,0.697 ± 0.1
22,YPDNRGRGPRQP,0.686 ± 0.082
23,YPDPLSVSPPPA,0.682 ± 0.097
24,YPSLPTLCSKQP,0.643 ± 0.084

row,Sequence,protein stability index
1,YPTLHEPHSPAL,0.738 ± 0.052
2,YPTLMRNGTEKT,0.696 ± 0.017
3,YPYLLSPRPPPP,0.628 ± 0.047
4,YQPLWTNTITGT,0.799 ± 0.17
5,YRFSKELEQKGQ,0.68281 ± 0.0003
6,YRLLRINFALPI,0.622 ± 0.025
7,YSRPAPSAPPHL,0.698 ± 0.016
8,YSRRRKILRKSY,0.615 ± 0.051
9,YSSALLHPTSPV,0.655 ± 0.064
10,YSSLLPLSSPSG,0.684 ± 0.04
11,YSVLVSLLPPSL,0.681 ± 0.031
12,YTAPIIGIGDDG,0.659 ± 0.036
13,YTKFASLKRHTQ,0.636 ± 0.034
14,YTTLLVSTNRLS,0.477 ± 0.082
15,YVGLNHYCIDAL,0.723 ± 0.054
16,YVLLSRFYLPPL,0.665 ± 0.02
17,YVSLAHLRWGVE,0.732 ± 0.055
18,YVVMARWSRWYV,0.522 ± 0.015
19,YVWVPCIRSVLV,0.491 ± 0.018
20,YWGEGGCREGGE,0.664 ± 0.056
21,YWSAQGRVVCVL,0.481 ± 0.07
22,YYLAVGNRIASR,0.688 ± 0.043
23,YYPLRIADQNGN,0.795 ± 0.054
24,YYRARRFRQSRR,0.709 ± 0.077
